Reference: paper doi:10.1101/2025.11.11.687647 (bioRxiv, 2025)

Target: the molecule itself
Experiment: cryo-EM structure

B1: CT–PT–BCCP fragment of MtPC (degradation product) (domain or fragment)
chain: ADRGTKILNFLADVTVNNPYGSRPSTIYPDDKLPDLDLRAAPPAGSKQRLVKLGPEGFARWLRESAAVGVTDTTFRDAHQSLLATRVRTSGLSRVAPYLARTMPQLLSVECWGGATYDVALRFLKEDPWERLATLRAAMPNICLQMLLRGRNTVGYTPYPEIVTSAFVQEATATGIDIFRIFDALNNIESMRPAIDAVRETGSAIAEVAMCYTGDLTDPGEQLYTLDYYLKLAEQIVDAGAHVLAIKDMAGLLRPPAAQRLVSALRSRFDLPVHLHTHDTPGGQLASYVAAWHAGADAVDGAAAPLAGTTSQPALSSIVAAAAHTEYDTGLSLSAVCALEPYWEALRKVYAPFESGLPGPTGRVYHHEIPGGQLSNLRQQAIALGLGDRFEEIEEAYAGADRVLGRLVKVTPTSKVVGDLALALVGAGVSADEFASDPARFGIPESVLGFLRGELGDPPGGWPEPLRTAALAGRGAARPTAQLAADDEIALSSVGAKRQATLNRLLFPSPTKEFNEHREAYGDTSQLSANQFFYGLRQGEEHRVKLERGVELLIGLEAISEPDERGMRTVMCILNGQLRPVLVRDRSIASAVPAAEKADRGNPGHIAAPFAGVVTVGVCVGERVGAGQTIATIEAMKMEAPITAPVAGTVERVAVSDTAQVEGGDLLVVVS
  stoichiometry N: 2
